Source: paper PMC6791878, “Evaluation of integrin αvβ6 cystine knot PET tracers to detect cancer and idiopathic pulmonary fibrosis” (Nature Communications, 2019)
Values joined by “and” are separate entries in the source; they are usually repeats but may differ in a detail not shown here. Equal entries are not always repeated. Where two headings read alike, the source gives them in different places. Where a SMILES comes first, the peptide text is derived from it. Bridges are numbered along the chain shown (N, C = ends). The star is where a group is joined. DOTA = O=C(O)CN1CCN(CC(=O)O)CCN(CC(=O)*)CCN(CC(=O)O)CC1

What was measured:
[1] = tested on: αvβ6 expressing BxPC3 pancreatic cancer xenografts; details: for Tumor: αvβ6 (+)
Protocol: (§1) Female athymic nude mice, 4–6 weeks old (Charles River), were subcutaneously shoulder-injected with 10^7 cells suspended in 100 µL PBS. Mice were used for imaging and biodistribution studies when xenografted tumors grew to a diameter of ~1 cm.
(§2) Tumor-bearing Nu/Nu female mice (n = 3 for each probe) were anesthetized using 2% isoflurane in oxygen and injected with ~100 µCi (~0.15 nmol) of the tracers described above via the tail vein. Five-minute static PET scans were acquired on an Inveon PET-CT or Inveon D-PET scanner (Siemens Healthcare, Malvern PA). Images were reconstructed by a two-dimensional ordered expectation maximum subset algorithm and calibrated as described below. ROIs were drawn over the tumor on decay-corrected whole-body images using Inveon Research Workplace (IRW) software (Siemens) or ASIPro VM software (Siemens). ROIs were converted to counts g^−1 min^−1, and %ID g^−1 values were determined assuming a tissue density of 1 g ml^−1.
(§3) Scanner activity calibration was performed to map between PET image units and units of radioactivity concentration. A preweighed 50-mL centrifuge tube was filled with distilled water and ^64CuCl2 (∼9.3 MBq [∼250 μCi] as determined by the dose calibrator) was used to simulate the whole body of the mouse. This tube was weighed, centered in the scanner aperture, and imaged for a 30-min static image, single bed position. From the sample weight and assuming a density of 1 g ml^−1, the activity concentration in the bottle was calculated in units of μCi mL^−1. Eight planes were acquired in the coronal section. A rectangular region of interest (ROI) (counts/pixel/s) was drawn on the middle of eight coronal planes.

in vivo = details: female, athymic nude (Nu/Nu), mouse, iv, total radioactivity; for tissue uptake at 2 h: microPET 2 hr; for tissue uptake at 4 h: microPET 4 hr; for tissue uptake at 24 h: microPET 24 hr; for tissue to tissue ratio at 1 h: tumor / muscle, 100 uCi
Protocol: as §1, §2, §3

[2] = PET, 1 h p.i., average ± SD, n = 3
[3] = microPET 2 hr, individual mice, listed as R01 DOTA Cu-64
[4] = microPET 4 hr, individual mice, listed as R01 DOTA Cu-64
[5] = kidney, PET, 1 h p.i., average ± SD, n = 3
[6] = kidney, microPET 1 hr, individual mice
[7] = liver, PET, 1 h p.i., average ± SD, n = 3
[8] = liver, microPET 1 hr, individual mice
[9] = muscle, PET, 1 h p.i., average ± SD, n = 3
[10] = muscle, microPET 1 hr, individual mice
[11] = tumor (BxPC3 xenograft), Tumor avb6(+), microPET 1 hr, individual mice, one line per mouse
[12] = tumor (BxPC3 xenograft), Tumor avb6(+), individual mice
[13] = tumor (BxPC3 xenograft, αvβ6 positive), Tumor, PET, 1 h p.i., αvβ6 (+), average ± SD, n = 3
[14] = microPET 1 hr, individual mice, listed as Ro1-MR DOTA Cu-64
[15] = microPET 4 hr, individual mice, listed as R01-MR DOTA Cu-64
[16] = microPET 24 hr, individual mice, listed as R01-MR DOTA Cu-64
[17] = microPET 4 hr, individual mice, listed as R01-MG DOTA Cu-64
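Further: shoulder subcutaneous xenografts near 1 cm, tracer given via tail vein, 5-min static PET, ROI activity on decay-corrected images converted to %ID/g with tissue density taken as 1 g/mL.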

SMILES	Tumor [1, 2]	Kidney [1, 2]	tissue uptake at 1 h (in vivo; [5]) [%ID/g]	tissue uptake at 1 h (in vivo; [6]) [%ID/g]	tissue uptake at 2 h (in vivo; kidney, individual mice) [%ID/g]	tissue uptake at 4 h (in vivo; kidney, individual mice) [%ID/g]	tissue uptake at 24 h (in vivo; kidney, individual mice) [%ID/g]	tissue uptake at 1 h (in vivo; [8]) [%ID/g]	tissue uptake at 2 h (in vivo; liver, individual mice) [%ID/g]	tissue uptake at 4 h (in vivo; liver, individual mice) [%ID/g]	tissue uptake at 24 h (in vivo; liver, individual mice) [%ID/g]	tissue uptake at 1 h (in vivo; [9]) [%ID/g]	tissue uptake at 1 h (in vivo; [10]) [%ID/g]	tissue uptake at 2 h (in vivo; muscle, individual mice) [%ID/g]	tissue uptake at 4 h (in vivo; muscle, individual mice) [%ID/g]	tissue uptake at 24 h (in vivo; muscle, individual mice) [%ID/g]	tissue uptake at 1 h (in vivo; [11]) [%ID/g]	tissue uptake at 2 h (in vivo; [12]) [%ID/g]	tissue uptake at 4 h (in vivo; [12]) [%ID/g]	tissue uptake at 24 h (in vivo; [12]) [%ID/g]	also measured
CC[C@H](C)[C@@H]1NC(=O)[C@@H](NC(=O)CNC(=O)CN2CCN(CC(=O)O)CCN(CC(=O)O)CCN(CC(=O)O)CC2)CSSC[C@@H]2NC(=O)[C@H](C)NC(=O)CNC(=O)[C@@H]3CCCN3C(=O)[C@@H]3CSSC[C@@H](C(=O)NCC(N)=O)NC(=O)[C@H](Cc4ccc(O)cc4)NC(=O)CNC(=O)[C@H](CC(N)=O)NC(=O)CNC(=O)[C@H](CCCNC(=N)N)NC(=O)[C@H](CSSC[C@H](NC(=O)[C@H](CCCNC(=N)N)NC(=O)[C@H](Cc4ccccc4)NC(=O)[C@H](CC(C)C)NC(=O)[C@H](CC(C)C)NC(=O)[C@H]([C@@H](C)O)NC(=O)CNC(=O)[C@H](CC(C)C)NC(=O)[C@H](CC(=O)O)NC(=O)[C@H]([C@@H](C)O)NC(=O)[C@H](CCCNC(=N)N)NC(=O)[C@H](CCSC)NC(=O)[C@H](CC(N)=O)NC(=O)[C@H](CC(C)C)NC1=O)C(=O)N[C@@H](CCCNC(=N)N)C(=O)N[C@@H](CCCNC(=N)N)C(=O)N[C@@H](CC(=O)O)C(=O)N[C@@H](CO)C(=O)N[C@@H](CC(=O)O)C(=O)N3)NC(=O)[C@H]([C@@H](C)CC)NC2=O [[^64Cu]DOTA-R01, metal not drawn]	~ 3 %ID g^−1	~ 30 %ID g^−1	30.3 ± 2.33	32.9	34.3	29.8	11.5	2.34	1.82	1.79	2.93	0.433 ± 0.008	0.427	0.404	0.399	0.37	2.99	2.87	2.39	1.85	Muscle ([1]; microPET 1 hr, individual mice, listed as Ro1 DOTA Cu-64): 0.4306 %ID/g; Muscle [1, 3]: 0.407 %ID/g; Tumor avb6(+) [1, 3]: 2.883 %ID/g; Kidney [1, 4]: 29.77 %ID/g; Muscle [1, 4]: 0.4024 %ID/g; Muscle ([1]; microPET 24 hr, individual mice, listed as R01 DOTA Cu-64): 0.3725 %ID/g; tissue uptake at 1 h (in vivo; [7]): 2.26 ± 0.11 %ID/g; tissue uptake at 1 h (in vivo; [13]): 3.07 ± 0.17 %ID/g; tissue to tissue ratio at 1 h (in vivo): 7.09 ± 0.27
CC[C@H](C)[C@@H]1NC(=O)[C@@H](NC(=O)CNC(=O)CN2CCN(CC(=O)O)CCN(CC(=O)O)CCN(CC(=O)O)CC2)CSSC[C@@H]2NC(=O)[C@H](C)NC(=O)CNC(=O)[C@@H]3CCCN3C(=O)[C@@H]3CSSC[C@@H](C(=O)NCC(N)=O)NC(=O)[C@H](Cc4ccc(O)cc4)NC(=O)CNC(=O)[C@H](CC(N)=O)NC(=O)CNC(=O)[C@H](CCCNC(=N)N)NC(=O)[C@H](CSSC[C@H](NC(=O)[C@H](CCCNC(=N)N)NC(=O)[C@H](Cc4ccccc4)NC(=O)[C@H](CC(C)C)NC(=O)[C@H](CC(C)C)NC(=O)[C@H]([C@@H](C)O)NC(=O)CNC(=O)[C@H](CC(C)C)NC(=O)[C@H](CC(=O)O)NC(=O)[C@H]([C@@H](C)O)NC(=O)[C@H](CCCNC(=N)N)NC(=O)[C@H](CCCNC(=N)N)NC(=O)[C@H](CC(N)=O)NC(=O)[C@H](CC(C)C)NC1=O)C(=O)N[C@@H](CCCNC(=N)N)C(=O)N[C@@H](CCCNC(=N)N)C(=O)N[C@@H](CC(=O)O)C(=O)N[C@@H](CO)C(=O)N[C@@H](CC(=O)O)C(=O)N3)NC(=O)[C@H]([C@@H](C)CC)NC2=O [[^64Cu]DOTA-R01-MR, metal not drawn] ({DOTA}-GCILNRRTDLGTLLFRCRRDSDCPGACICRGNGYCG-NH2; disulfide 2-27, 17-29, 23-35)	~ 3 %ID g^−1	~ 90 %ID g^−1	90 ± 3.64	94	90.5	82.3	37.8	4.66	3.9	3.44	6.99	0.536 ± 0.004	0.533	0.516	0.467	0.513	3.27	3.46	2.55	3.2	kidney uptake relative to the other two candidates ([1]; 1 h p.i.): ~ 3 fold; Tumor avb6(+) ([1]; microPET 1 hr, individual mice, one line per mouse, listed as Ro1-MR DOTA Cu-64): 3.249 %ID/g; Liver [1, 14]: 4.713 %ID/g; Muscle [1, 14]: 0.5407 %ID/g and 0.5349 %ID/g; Muscle ([1]; microPET 2 hr, individual mice, listed as R01-MR DOTA Cu-64): 0.5174 %ID/g; Kidney [1, 15]: 82.8 %ID/g; Liver [1, 15]: 4.22 %ID/g; Muscle [1, 15]: 0.4687 %ID/g; Kidney [1, 16]: 38.15 %ID/g; Muscle [1, 16]: 0.5142 %ID/g; Tumor avb6(+) [1, 16]: 3.535 %ID/g; tissue uptake at 1 h (in vivo; [7]): 4.63 ± 0.09 %ID/g; tissue uptake at 1 h (in vivo; [13]): 3.45 ± 0.34 %ID/g; tissue to tissue ratio at 1 h (in vivo): 6.43 ± 0.58
CC[C@H](C)[C@@H]1NC(=O)[C@@H](NC(=O)CNC(=O)CN2CCN(CC(=O)O)CCN(CC(=O)O)CCN(CC(=O)O)CC2)CSSC[C@@H]2NC(=O)[C@H](C)NC(=O)CNC(=O)[C@@H]3CCCN3C(=O)[C@@H]3CSSC[C@@H](C(=O)NCC(N)=O)NC(=O)[C@H](Cc4ccc(O)cc4)NC(=O)CNC(=O)[C@H](CC(N)=O)NC(=O)CNC(=O)[C@H](CCCNC(=N)N)NC(=O)[C@H](CSSC[C@H](NC(=O)[C@H](CCCNC(=N)N)NC(=O)[C@H](Cc4ccccc4)NC(=O)[C@H](CC(C)C)NC(=O)[C@H](CC(C)C)NC(=O)[C@H]([C@@H](C)O)NC(=O)CNC(=O)[C@H](CC(C)C)NC(=O)[C@H](CC(=O)O)NC(=O)[C@H]([C@@H](C)O)NC(=O)[C@H](CCCNC(=N)N)NC(=O)CNC(=O)[C@H](CC(N)=O)NC(=O)[C@H](CC(C)C)NC1=O)C(=O)N[C@@H](CCCNC(=N)N)C(=O)N[C@@H](CCCNC(=N)N)C(=O)N[C@@H](CC(=O)O)C(=O)N[C@@H](CO)C(=O)N[C@@H](CC(=O)O)C(=O)N3)NC(=O)[C@H]([C@@H](C)CC)NC2=O [[^64Cu]DOTA-R01-MG, metal not drawn]	~ 3 %ID g^−1	~ 30 %ID g^−1	28.4 ± 2.61	25.3	26.9	25.6	10.8	1.77	2.38	2.4	3.39	0.472 ± 0.003	0.471	0.398	0.385	0.394	2.93	2.27	2.22	2.52	Liver [1, 2]: 2.14 ± 0.38 % injected dose gram^−1; Tumor avb6(+) ([1]; microPET 1 hr, individual mice, one line per mouse, listed as Ro1-MG DOTA Cu-64): 2.952 %ID/g; Muscle ([1]; microPET 1 hr, individual mice, listed as Ro1-MG DOTA Cu-64): 0.4707 %ID/g; Muscle ([1]; microPET 2 hr, individual mice, listed as R01-MG DOTA Cu-64): 0.4023 %ID/g and 0.398 %ID/g; Liver [1, 17]: 2.382 %ID/g; Muscle [1, 17]: 0.3296 %ID/g; Muscle ([1]; microPET 24 hr, individual mice, listed as R01-MG DOTA Cu-64): 0.3985 %ID/g and 0.3942 %ID/g; tissue uptake at 1 h (in vivo; [13]): 2.74 ± 0.35 %ID/g; tissue to tissue ratio at 1 h (in vivo): 5.8 ± 0.72
